Laboratory results: the nanobody polyreactivity screen of Harvey et al. (2022)

Test: yeast display, Sf9 membrane polyspecificity reagent, FACS + sequencing; frameworks hold sequencing errors
Outline: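 Sorting gates, low and high (top ~1%), were placed on anti-HA fluorescence to track expression and on streptavidin fluorescence to track reagent binding. A clone's polyreactivity label is taken from the gate it came out of. The reagent was 10% biotinylated, detergent-solubilized Sf9 membrane, applied for 1 hour at 4 °C to galactose-induced yeast display cells.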

## PVQIVESGGVLDQAGGSLRLSCAASGSIFTRNTMGWYRQAPRKERELVAAISQRGGSTYYADSVKGRFTISRDNAKNTVYLQMNSLIPEDTAVYFCAADFSFGYYWYGYWGQGTQVTVSS
  polyreactivity (PSR sort gate): high polyreactivity

## QVHLVESGGGLVQAGGSLRLSCAASGSTFRHYAMGWYRQAPGKERELVAAISSRGGRTYYADSVKGRFTISRDNAKNTGYLQMNSQKPEDTAVYYCAADRFRLYVGGWWYDYWRQGTQVTVSS
  polyreactivity (PSR sort gate): high polyreactivity

## QVQLVESGGGLVQAGGSLRLSCAASGRTFTTYAMGWYRQAPGKERELVAAISGSGGSTYYADSVKGRFTISRDNAKNTVYLQMNSLKPEDTAVYYCATAYYYHGGYYYPYDDDWGQGTQVTVSS
  polyreactivity (PSR sort gate): low polyreactivity

## QVQLLESGGGLVQAGGSLRLSCAASGFSFEYYAMGWSRQAPGKDRELVAAIRSVSGTNYADSVKGRFTISRDNAKNTVYLQMNSQKPEDTAVYYCAKLRYPYLFLDDSEYWGQRTQVTVSS
  polyreactivity (PSR sort gate): low polyreactivity

## QVQLQESGCGLVQAGGSLRLTCAASGSISYPRTMGWSRQAPGKEREFVAGIGVGGTTYYADSVIGRFTISRDNAKNTVYLQMNSLKPEDTAVYYCAVYSGDDYYHDYWGQGTQVTVSS
  polyreactivity (PSR sort gate): low polyreactivity

## QVQLVESGGGLVQAGGSLRLSCAASGSIFTRYTMGWDRQAPRKERELVATNSSRGDGTYYADSVKGRFTISRDNAKNTVYLQMNSLKPEDTAVYYCSARYRRVLSGYGYWGHGTQVTVSS
  polyreactivity (PSR sort gate): high polyreactivity

## QVQLVESGGGLVQAGGSLRLSCAASGFIFPGYTRGWYRQAPGKEWELVAAISRGSSTYYADSVKGRFTISRDNAKNTVYLQMNSLKPEDTSVYYCNTRVYAITLYDYWGQGTQVTVSS
  polyreactivity (PSR sort gate): low polyreactivity

## QVQLVESGGGLVQAGGSLRLSCAASGRIFRTYAMGWYRQAPGKERELVAAISYSGGSTFYADSVKGRFTISRDNAKNSVYLQMNSLKPESTAVYYCAADSRAKRYYWGQGTQVTVSS
  polyreactivity (PSR sort gate): high polyreactivity

## QVQLVESGGGLVQAGGSLRLSCAASGFTFYSYTMGWYRQAPGKERELVAAITRGGRTYYADSVKGRFTISRDNAKNTVYLQMNSLKPEDTAVYYCAARVGSWTQSFGYDYWGQGTQVTVSS
  polyreactivity (PSR sort gate): high polyreactivity

## QVHLVESGGGLVQAGGSLRLSFAASGFTFGQNAMGWYRQAPGKEREFVATITASGSTYYADSVKGRFTISRDNAKNTVYLQMYSLKPEDTAVYYCATRYAGEYYWDYDYWGQGTQVTVSS
  polyreactivity (PSR sort gate): high polyreactivity

## QVQLVESGGGLVQAGGSLRLSCAASGSTFYVNVMGWYRQAPGKERELVADISNDGSTHYADSVKGRFTISRDTAKNTVYLQMNSLKPEDTAVYYCNAEEIDEASYAYPPLEYDYWGQGTQVTVSS
  polyreactivity (PSR sort gate): low polyreactivity

## QVQLVESGGGLVQAGGSLRLSCAATGSIISVNTMGWYRQAPGKERELVATIRTGDSTNYADSVKGRFTISRDNAKYTVYLQMNSLKPEDTAVYYCAAEWSSLNFDYWGQGTQVTVSS
  polyreactivity (PSR sort gate): low polyreactivity

## QVQLVESGGGLVQAGGSLRFTCAASGRIFLGYAMGWYRQAAGKEREFVAAINSVASTNYADSVKGRFTISRDNAKNTVYLQMNSLKPEDTAVYYCAAVYFLVQSDLPAYDYWGQGTQVTVSS
  polyreactivity (PSR sort gate): low polyreactivity

## QVQLVESGGGLVQAGGSLRLSCAASGITFYVNAMGWYRKAPGKERELVAGITLSGDSTYYADSVKGRFTISRDNAKNTVYLQMNSLKPEDTAVYYCAVEGGLWWPYTYYYWGQGTQVTVSS
  polyreactivity (PSR sort gate): high polyreactivity

## QVQLVDSGGGLVQAGGRLRLSCAASGFIIDWNTKGWYRQAPGKERELVAAITESSGSTYYADSVKGRFTISRDNAKNTVYLLMNSLKPVDTAVYYCGAELDVSVCFVSRFHFDYWGQGTQVTVSS
  polyreactivity (PSR sort gate): low polyreactivity

## QVQLVESGGGLVQEGGSLRLSCAASGNTVGINAMGWYRQAPGKERELVASISFTGSSTYYADSVKGRFTISRDNAKNTVYFQMNSLKPEDTAVSYCNRDRITLYEYDYWGQGTQVTVSS
  polyreactivity (PSR sort gate): low polyreactivity

## QVQLVESGGGLVQAGGSLRLSCAASGLIFAGYTMGWYRQAPGKERELVAAISISGGSTYYADSVKGRFTISRDNAKNTVYLQMNSLKPEDTAVYYCASKRRSWPPTYYYWGQGTQVTVSS
  polyreactivity (PSR sort gate): high polyreactivity
